Patent US20170119790A1, “Agents, Uses and Methods” (CYTOGUIDE A/S, priority 2009, published 2017)

Assays:
[1] = target: T1, human CD163 R60D (Homo sapiens, UniProt Q86VB7, R112D); test: Western blotting of human CD163 and knock out mutants; format: binding
T1 construct: a pcDNA5-FRT-humanCD163 plasmid harboring the full length human CD163 cDNA; expressed in transfected cells; host or cells: HEK 293, transient
Source text: (§1) For the mutant generation the Site-directed Ligation Independent Mutagenesis (SLIM) method was used (1). Primers are listed in the primer table. The template for the generation of the two first mutants was a pcDNA5-FRT-humanCD163 plasmid harboring the full length human CD163 cDNA. The primers LKI FT, RT, F, and R were used to generate the mutant plasmid pcDNA5-FRT-humanCD163 (VKVQEE-->LKIHEK). The primers R60D FT, RT, F, and R were used to generate the mutant plasmid pcDNA5-FRT-humanCD163 (R60D). Generation of a double mutant was done by performing a SLIM reaction on pcDNA5-FRT-humanCD163 (VKVQEE-->LKIHEK) with the primers R60D FT, RT, F, and R.
(§2) Each cell pellet was added 1 ml lysis buffer (10 mM Tris pH 8, 140 mM NaCl, 15 mM MgSO4, 1% Triton X-100) and incubated for 15 min at 4 °C with rotation. After centrifugation for 30 min at 6000 rpm the supernatants were sterile filtered.
(§3) 90 μl of each of the supernatants were added 30 μl of 4×LDS sample buffer. 3×20 μl samples of each supernatant and 8 μl SeeBlue plus2 prestained marker were loaded on NuPage 4-12% Bis-Tris-Gels (Invitrogen, Taastrup, Denmark) and the SDS-PAGEs were run with MOPS running buffer according to instructions of the manufacturer (200 V constant for 50 min). Blotting to PVDF membranes (Invitrogen, Taastrup, Denmark) was done on an iBLOT device according to instructions of the manufacturer. […]

[2] = target: T2, human CD163 LKIHEK containing mutants (VKVQEE-->LKIHEK and double mutant) (Homo sapiens, UniProt Q86VB7, E71K/Q69H/V66L/V68I); test: as above; format: binding
T2 construct: a pcDNA5-FRT-humanCD163 plasmid harboring the full length human CD163 cDNA; expressed in transfected cells; host or cells: HEK 293, transient
T2 sequence (Q86VB7 42-1156 V66L/V68I/Q69H/E71K): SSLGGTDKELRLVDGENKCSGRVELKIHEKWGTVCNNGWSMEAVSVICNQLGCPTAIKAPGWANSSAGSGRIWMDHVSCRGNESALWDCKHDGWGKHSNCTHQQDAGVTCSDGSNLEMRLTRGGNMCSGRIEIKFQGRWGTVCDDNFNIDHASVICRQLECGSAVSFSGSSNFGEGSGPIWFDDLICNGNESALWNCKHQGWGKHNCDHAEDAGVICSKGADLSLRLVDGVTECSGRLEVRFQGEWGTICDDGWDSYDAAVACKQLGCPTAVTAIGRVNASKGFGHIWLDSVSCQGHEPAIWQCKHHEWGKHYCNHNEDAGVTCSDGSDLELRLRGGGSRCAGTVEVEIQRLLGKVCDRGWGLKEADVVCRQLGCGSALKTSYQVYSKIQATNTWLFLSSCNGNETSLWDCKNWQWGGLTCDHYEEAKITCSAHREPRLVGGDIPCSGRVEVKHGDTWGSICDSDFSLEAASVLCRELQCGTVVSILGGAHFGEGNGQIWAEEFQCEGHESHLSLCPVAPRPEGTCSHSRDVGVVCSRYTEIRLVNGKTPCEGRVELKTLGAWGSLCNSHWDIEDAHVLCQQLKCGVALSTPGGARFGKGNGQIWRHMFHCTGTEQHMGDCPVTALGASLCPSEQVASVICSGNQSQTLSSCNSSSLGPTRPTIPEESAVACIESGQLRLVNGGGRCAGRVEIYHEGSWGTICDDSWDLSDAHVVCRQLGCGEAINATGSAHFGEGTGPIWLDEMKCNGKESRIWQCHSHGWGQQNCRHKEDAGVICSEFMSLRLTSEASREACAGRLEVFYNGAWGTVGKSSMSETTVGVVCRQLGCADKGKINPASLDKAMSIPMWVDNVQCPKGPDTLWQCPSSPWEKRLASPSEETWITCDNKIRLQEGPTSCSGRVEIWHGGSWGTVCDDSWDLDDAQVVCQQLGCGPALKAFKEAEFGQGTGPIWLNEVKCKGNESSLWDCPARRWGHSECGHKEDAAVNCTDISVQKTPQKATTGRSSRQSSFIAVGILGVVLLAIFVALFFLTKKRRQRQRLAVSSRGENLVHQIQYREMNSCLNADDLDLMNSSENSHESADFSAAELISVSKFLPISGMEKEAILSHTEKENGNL
Source text: as §1, §2, §3

[3] = target: CD163 (Homo sapiens, UniProt Q86VB7); test: Surface plasmon resonance (Biacore) analysis of mAb binding to immobilized CD163
Sequence of CD163 (Q86VB7 42-1156): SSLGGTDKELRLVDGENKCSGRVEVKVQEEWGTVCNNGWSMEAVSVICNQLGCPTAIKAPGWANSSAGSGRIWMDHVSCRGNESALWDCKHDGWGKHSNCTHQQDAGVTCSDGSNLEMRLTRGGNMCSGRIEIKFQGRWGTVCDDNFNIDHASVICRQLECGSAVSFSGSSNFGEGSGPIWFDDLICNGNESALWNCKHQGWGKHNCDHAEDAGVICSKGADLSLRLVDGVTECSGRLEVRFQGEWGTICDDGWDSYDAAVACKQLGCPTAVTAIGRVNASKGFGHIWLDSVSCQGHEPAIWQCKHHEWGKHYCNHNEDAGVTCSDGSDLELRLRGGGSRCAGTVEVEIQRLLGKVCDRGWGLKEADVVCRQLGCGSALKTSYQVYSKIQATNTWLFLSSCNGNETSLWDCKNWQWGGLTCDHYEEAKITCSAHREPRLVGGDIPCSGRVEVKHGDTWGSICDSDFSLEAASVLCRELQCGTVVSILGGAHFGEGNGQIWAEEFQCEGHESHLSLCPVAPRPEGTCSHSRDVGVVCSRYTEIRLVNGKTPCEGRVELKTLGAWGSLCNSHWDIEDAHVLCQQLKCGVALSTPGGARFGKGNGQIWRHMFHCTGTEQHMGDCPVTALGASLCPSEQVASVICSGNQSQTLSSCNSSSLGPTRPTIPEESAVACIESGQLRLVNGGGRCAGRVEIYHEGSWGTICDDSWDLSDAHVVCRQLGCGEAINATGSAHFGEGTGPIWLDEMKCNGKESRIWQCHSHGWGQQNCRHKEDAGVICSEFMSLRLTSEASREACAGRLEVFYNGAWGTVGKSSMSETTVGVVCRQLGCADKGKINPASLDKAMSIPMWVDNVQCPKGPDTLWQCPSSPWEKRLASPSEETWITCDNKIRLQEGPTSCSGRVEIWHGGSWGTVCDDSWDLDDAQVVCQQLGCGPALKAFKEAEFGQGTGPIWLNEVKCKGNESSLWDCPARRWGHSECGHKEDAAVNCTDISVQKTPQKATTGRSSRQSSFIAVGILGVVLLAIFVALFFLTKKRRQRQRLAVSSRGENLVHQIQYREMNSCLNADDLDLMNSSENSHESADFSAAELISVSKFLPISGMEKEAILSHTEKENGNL
Description: (§4) SPR analysis of the binding of mAbs to CD163 was carried out on a Biacore 2000 instrument (Biacore, Uppsala, Sweden). The Biacore sensor chips (type CM5) were activated with a 1:1 mixture of 0.2 M N-ethyl-N′-(3-dimethylaminopropyl) carbodiimide and 0.05 M N-hydroxysuccimide in water. Purified recombinant CD163 were immobilized in 10 mM sodium acetate, pH 4.0, and the remaining binding sites were blocked with 1 M ethanolamine, pH 8.5. The SPR signal generated from immobilized recombinant CD163 proteins corresponded to 40-70 fmol of protein/mm^2. Sensorgrams were generated using mAb concentrations ranging from 5-100 nM. The flow cells were regenerated with 1.6 M glycine-HCl, pH 3. The running buffer used for the experiment was either CaHBS 10 mM Hepes, 150 mM NaCl, 3.0 mM CaCl2, 1.0 mM EGTA, and 0.005% Tween 20, […], and 0.005% Tween 20, pH 7.4, mAb samples were dissolved in the same buffer as the running buffer used. All binding data were analyzed using the Biamolecular Interaction Analysis evaluation program version 3.1.
as §4, with “7.4, KN2/NRY and Mac-158” for “7.4, mAb”, “buffer used at a concentration of 5 μg/ml.” for “buffer used.”

T1 sequence (Q86VB7 42-1156 R112D): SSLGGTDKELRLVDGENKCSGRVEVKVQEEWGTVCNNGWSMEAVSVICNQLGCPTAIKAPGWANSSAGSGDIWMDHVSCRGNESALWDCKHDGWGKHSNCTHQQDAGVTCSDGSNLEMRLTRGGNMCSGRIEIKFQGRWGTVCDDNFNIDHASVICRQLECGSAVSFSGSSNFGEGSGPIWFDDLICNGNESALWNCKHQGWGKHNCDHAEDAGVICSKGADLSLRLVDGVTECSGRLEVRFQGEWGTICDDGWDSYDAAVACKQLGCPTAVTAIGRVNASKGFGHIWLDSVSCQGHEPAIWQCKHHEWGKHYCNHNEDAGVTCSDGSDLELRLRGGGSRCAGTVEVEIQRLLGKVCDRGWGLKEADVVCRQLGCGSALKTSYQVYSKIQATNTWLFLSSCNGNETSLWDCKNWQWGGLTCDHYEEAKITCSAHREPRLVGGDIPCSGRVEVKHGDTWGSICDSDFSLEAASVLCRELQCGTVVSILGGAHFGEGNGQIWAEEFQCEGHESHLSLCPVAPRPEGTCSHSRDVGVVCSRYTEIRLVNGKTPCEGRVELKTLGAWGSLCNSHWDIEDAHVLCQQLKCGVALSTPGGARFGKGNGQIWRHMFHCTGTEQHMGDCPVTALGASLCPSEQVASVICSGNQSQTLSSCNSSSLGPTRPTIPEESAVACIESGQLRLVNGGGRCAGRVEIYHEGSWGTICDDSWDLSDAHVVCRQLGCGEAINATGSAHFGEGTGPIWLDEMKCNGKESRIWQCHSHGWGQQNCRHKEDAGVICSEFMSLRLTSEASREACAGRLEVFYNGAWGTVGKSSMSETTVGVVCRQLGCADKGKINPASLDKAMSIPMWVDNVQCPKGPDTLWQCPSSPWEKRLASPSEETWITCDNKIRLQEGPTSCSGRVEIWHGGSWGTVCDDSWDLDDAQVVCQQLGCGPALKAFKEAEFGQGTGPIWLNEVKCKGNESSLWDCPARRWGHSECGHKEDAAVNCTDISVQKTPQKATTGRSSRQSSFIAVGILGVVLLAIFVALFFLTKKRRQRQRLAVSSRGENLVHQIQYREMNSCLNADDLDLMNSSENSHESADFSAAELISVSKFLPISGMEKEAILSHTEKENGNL

B1: MAC2-158: anti-human CD163 murine mAb, binds SRCR domain 1, IQ Products; VH SEQ ID NO: 1, VL SEQ ID NO: 2 (antibody, V domains shown)
VH: DVQLQESGPGLVKPSQSLSLTCTVTGYSITSDYAWNWIRQFPGNKLEWMGYITYSGITNYNPSLKSQISITRDTSKNQFFLQLNSVTTEDTATYYCVSGTYYFDYWGQGTTLTVSS
VL: SVVMTQTPKSLLISIGDRVTITCKASQSVSSDVAWFQQKPGQSPKPLIYYASNRYTGVPDRFTGSGYGTDFTFTISSVQAEDLAVYFCGQDYTSPRTFGGGTKLEIKRA
modifications: Mac2-158 VH; Mac2-158 VL
With B1 the “binding in western blot” value [1] was “very weak”, the “binding in western blot” value [2] was “No binding was detected” and the “affinity for human CD163 immobilized on a Biacore chip” value ([3]; KN2/NRY compared with Mac2-158, 5 μg/ml, FIG. 19) was “Virtually similar affinities”. For the same molecule, the “strength of binding to CD163 in Biacore studies” value ([3]; comparison between mAbs) was “high affinity”, the “affinities for CD163” value ([3]; in both 2 mM free Ca2+ and 10 mM EDTA) was “nanomolar or sub-nanomolar range” and the “calcium dependence of binding activity in SPR-analysis” value ([3]; with/without calcium) was “binding activity regardless extracellular levels of calcium”.
